Reference: article PMC4757811 (Biochemistry, 2015)
Square brackets hold non-standard residues; d marks the D form. Ends that are not written are not given here. pY = N[C@@H](Cc1ccc(OP(=O)(O)O)cc1)C(=O)O

Molecular target: Brk SH2 domain (UniProt Q13882 78-170)
Experiment: ITC

Sequence of Brk SH2 domain (Q13882 78-170): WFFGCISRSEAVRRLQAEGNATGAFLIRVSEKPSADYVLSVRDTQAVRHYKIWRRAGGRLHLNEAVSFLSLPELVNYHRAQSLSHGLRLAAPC

| Kd [µM] | Binder |
| --- | --- |
| 15 | FTS[pY]ENPTG [Phosphorylated Brk C-terminal tail peptide, wild type (FTSpYENPTG)] |
| 53 | FTS[pY]ENLTG [Phosphorylated Brk C-terminal tail peptide with the P450L substitution (FTSpYENLTG)] |
